Here are results for 1 protein from patent US20030171557.

The target in series [1] is GST protein [GST: P08515].
The target of series [2] is GST-IkBα protein [GST: P08515].
Another series concerns the target T1, IkBα C-terminal peptide.
T1 chain: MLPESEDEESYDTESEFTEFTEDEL

Chain of GST protein [GST: P08515] (P08515 whole entry): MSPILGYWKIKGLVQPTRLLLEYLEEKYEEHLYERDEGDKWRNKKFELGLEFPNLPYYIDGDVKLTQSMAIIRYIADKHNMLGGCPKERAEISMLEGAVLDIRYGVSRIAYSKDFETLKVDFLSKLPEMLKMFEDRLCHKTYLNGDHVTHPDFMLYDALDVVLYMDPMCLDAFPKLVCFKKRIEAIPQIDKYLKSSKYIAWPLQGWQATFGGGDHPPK

B1: GST fusion protein with wild VRK1 protein (protein)
chain: MPRVKAAQAGRQSSAKRHLAEQFAVGEIITDMAKKEWKVGLPIGQGGFGCIYLADMNSSESVGSDAPCVVKVEPSDNGPLFTELKFYQRAAKPEQIQKWIRTRKLKYLGVPKYWGSGLHDKNGKSYRFMIMDRFGSDLQKIYEANAKRFSRKTVLQLSLRILDILEYIHEHEYVHGDIKASNLLLNYKNPDQVYLVDYGLAYRYCPEGVHKEYKEDPKRCHDGTIEFTSIDAHNGVAPSRRGDLEILGYCMIQWLTGHLPWEDNLKDPKYVRDSKIRYRENIASLMDKCFPEKNKPGEIAKYMETVKLLDYTEKPLYENLRDILLQGLKAIGSKDDGKLDLSVVENGGLKAKTITKKRKKEIEESKEPGVEDTEWSNTQTEEAIQTRSRTRKRVQK
For B1, the “kinase assay, phosphorylation of substrate ([γ-32P]-ATP, SDS-PAGE, 10 mM Mg)” value was “GST protein was not phosphorylated by VRK1” in series [1]; “wild VRK1 protein phosphorylates casein and GST-IkBα” in the series with casein (Sigma); “wild VRK1 protein phosphorylates casein and GST-IkBα” in series [2]. The “kinase assay with casein as substrate in the presence of Mg, Mn, Zn or Ca at 2 mM or 10 mM” value with casein (Sigma) is “VRK1 exhibits phosphorylation activity in the presence of all divalent cations except for Zn ... especially strong activity in the presence of Mn”. Further, the “kinase assay, phosphorylation of substrate ([γ-32P]-ATP, SDS-PAGE)” value with IkBα C-terminal peptide is reported as “Arrows indicate ... phosphorylated IkBα C-terminal peptide (“P”)”.
